This is an account of results in article PMC3673938, “Two Distinct Calmodulin Binding Sites in the Third Intracellular Loop and Carboxyl Tail of Angiotensin II (AT1A) Receptor” (PLoS ONE, 2013).

What all share (settings): both partners purified
Assay [1] has as its target T1, dansyl-calmodulin (bovine brain) (bovine, UniProt P62157 1-149, dansyl (0.18–0.34 mol of dansyl moiety per mol of CaM), site not stated).
T1 construct: calmodulin, bovine brain, dansylated; also called dansyl-CaM; source: CaM purified from bovine brain (bought: Calbiochem), labelled with dansyl chloride
As to the kind of experiment: other fluorescence titration; peptides (25–2000 nM) with 147 nM dansyl-CaM, 0.1 mM calcium, 1 hour at room temperature; emission at 485 nm; apparent dissociation constants.

Assay [2] has as its target T1, dansyl-calmodulin (bovine brain). The assay is described as follows: dansyl-CaM fluorescence emission spectrum; 106 nM dansyl-CaM, 500 nM peptide, 0.1 mM calcium, 1 hour at room temperature; excitation 340 nm, emission 425–600 nm; compared with dansyl-CaM in 10 mM EGTA.
Assay [3] has as its target T2, calmodulin purified from bovine brain (bovine, UniProt P62157 1-149).
T2 construct: calmodulin, bovine brain; also called CaM; pure bovine brain CaM; source: purified from bovine brain; bought: Calbiochem
As to the kind of experiment: pull-down; 50 pmol GST-fusion protein with purified bovine brain CaM (50 pmol) in 250 µl of 100 mM Tris-HCl pH 7.5 with 0.1 mM CaCl2; 4°C; glutathione-sepharose 4B beads; immunoblot with anti-CaM; for the mutants density of CaM against loaded GST-fusion protein. On the technique in general: Immunoblotting shows a protein as a band on a membrane.

B1: ATct(302–317) peptide (peptide)
peptide: YGFLGKKFKKYFLQLL
notes: also called 1-5-10 motif peptide of the carboxyl tail; source: synthetic peptide (MUSC Proteogenomics Facility, HPLC purified)
As for B1, the Kd in assay [1] amounted to 79.4 nM. In addition, the “fold increase in dansyl-CaM fluorescence intensity at 482 nm (500 nM peptide)” value in assay [2] is approximately 3.5 fold.

B2: ATct(302–317)F309A peptide (peptide)
peptide: YGFLGKKAKKYFLQLL
notes: AT1A receptor carboxyl tail, amino acids 302–317, with F309A; source: synthetic peptide (MUSC Proteogenomics Facility, HPLC purified)
Turning to B2, the Kd in assay [1] turned out to be 308 nM.

B3: ATct(302–317)F313A peptide (peptide)
peptide: YGFLGKKFKKYALQLL
notes: AT1A receptor carboxyl tail, amino acids 302–317, with F313A; source: synthetic peptide (MUSC Proteogenomics Facility, HPLC purified)
On to B3, for which the Kd in assay [1] is 388 nM.

B4: ATi3(214–231) peptide (peptide)
peptide: SYTLIWKALKKAYEIQKN
notes: also called 1–12 motif peptide of the i3 loop; source: synthetic peptide (MUSC Proteogenomics Facility, HPLC purified)
With B4, in assay [1], the Kd came out at 177 nM. Moreover, the “fold increase in dansyl-CaM fluorescence intensity at 486 nm (500 nM peptide)” value in assay [2] is approximately 3.2 fold.

B5: GST-ATi3(213–242) (domain or fragment)
chain: TSYTLIWKALKKAYEIQKNKPRNDDIFRII
notes: amplified from pcDNA3.1-AT1A receptor; cloned in pGEX-4T-1 at BamH I and EcoR I downstream of GST; also called GST-i3 loop; i3 loop of the AT1A receptor; source: E. coli BL21, purified (glutathione sepharose 4B); not shown: GST, N-terminal, kept
B5: the binding result in assay [3] was “binds”.

B6: GST-ATi3N(213–234) (domain or fragment)
chain: TSYTLIWKALKKAYEIQKNKPR
notes: also called GST-N-terminus of the i3 loop; source: E. coli BL21, purified (glutathione sepharose 4B); not shown: GST, N-terminal, kept
Regarding B6, the binding result in assay [3] is on record as “binds”.

B7: GST-ATctN(297–324) (domain or fragment)
chain: LNPLFYGFLGKKFKKYFLQLLKYIPPKA
notes: N-terminal part of the carboxyl tail of the AT1A receptor, amino acids 297–324; stop codon after 324A in GST-ATct(297–359); also called GST-N-terminus of carboxyl tail; source: E. coli BL21, purified (glutathione sepharose 4B); not shown: GST, N-terminal, kept
With B7, the binding result in assay [3] is reported as “binds”.
